Like-named read-outs stand apart in the source and are kept apart here. Starred links: 1 amine or outer side, 2 acyl side, 3 side chain; linkers in the order of their positions; H or OH if unused. Positions of bridges follow the written chain, without caps; N, C: chain ends. Non-standard residues stand in square brackets, D forms with d. Residues, ends and D or L forms follow the SMILES beside them. Chains are numbered I, II in the order given. *: point of attachment. X1 = O=C(CCP(=O)(O)CN1CCN(CP(=O)(O)CCC(=O)NCCCn2cc(CCC(=O)[*:2])nn2)CCN(CP(=O)(O)CCC(=O)NCCCn2cc(CCC(=O)[*:3])nn2)CC1)NCCCn1cc(CCC(=O)[*:1])nn1; X2 = O=C(O)CCP(=O)(O)CN1CCN(CP(=O)(O)CCC(=O)O)CCN(CP(=O)(O)CCC(=O)NCCCn2cc(CCC(=O)*)nn2)CC1; NMeK = CN[C@@H](CCCCN)C(=O)O; Pent4ynoyl = C#CCCC(=O)*
Experiments:
αvβ8-integrin = αvβ8-integrin (Homo sapiens, UniProt P06756+P26012); experiment: solid-phase binding assay, αvβ8-integrin affinity
Method: (§1) Synthesis and characterization of Triveoctin is described in the Additional file 1. The integrin affinities were determined by a solid-phase binding assay, applying a previously described protocol. β8 immunohistochemistry stainings were done as described. All animal studies have been performed in accordance with general animal welfare regulations in Germany and the institutional guidelines for the care and use of animals. ^68Ga radiolabeling, cultivation of MeWo cells and generation of respective subcutaneous xenografts, determination of n-octanol/phosphate-buffered saline (PBS) distribution coefficients (log D) and ex-vivo biodistribution studies, and µPET imaging were done as described previously in detail (a brief summary is provided in the following).

[1] = test system: MeWo (human melanoma) xenografted SCID mice; set-up: method as in PMID 23283986; settings: cited from earlier work
in vivo = experiment: in vivo; set-up: species or system mice; settings: female, CB17 SCID, mouse; for tissue uptake at 1 h: 43 pmol
Method: as §1
(§2) MeWo cells (ATCC®, HTB-65™) were grown at 37 °C under 5% CO2 atmosphere in DMEM/HAM (Biochrom, Berlin, Germany) with 10% fetal calf serum (Thermo Fisher). Approx. 10^7 cells were subcutaneously injected with Matrigel® (Corning, #354262) into the right shoulder of 6–8-week-old female CB17 severe combined immunodeficiency (SCID) mice, which were used about 2–3 weeks later for PET and biodistribution.
(§3) Fig. 3 Biodistribution of ^68Ga-Triveoctin, 60 min p.i. (43 ± 13 pmol, n = 6; blockade with 60 nmol Triveoctin injected 5 min prior to the radiopharmaceutical, n = 4) in MeWo-xenografted SCID mice, uptakes expressed as % injected dose per gram tissue; mean ± SD. Data for ^68Ga-TRAP-AvB8 (control: 77 ± 24 pmol, n = 11; blockade: n = 3) were taken from the literature and are shown for comparison. Data in numerical form are given in the Additional file 1: Table S1

[2] = test system: MeWo (human melanoma) xenografted SCID mice; experiment: in vivo; settings: mouse
Method: as §1, §2, §3

clinical = settings: human, in vivo
Method: Using a fully automated synthesis module, the eluate of a ^68Ge/^68Ga generator (by Eckert & Ziegler, Berlin, Germany; 0.1 M HCl, approx. 500 MBq ^68Ga) was directly eluted into the reaction vial containing Triveoctin (35 µg) and adjusted to pH 4.5 with sodium acetate. After heating for 4 min at 95 °C, the mixture was passed over a solid-phase extraction cartridge (Waters Sep-Pak®light tC-18), which was purged with water (10 mL). Thereafter, ^68Ga-Triveoctin was eluted with ethanol/water mixture (1:1 by volume, 1 mL), followed by isotonic saline (9 mL). The formulation containing approx. 5% ethanol was passed through a 0.22-µm filter into a sterile injection vial and dispensed for injection. Quality control was done by radio-HPLC using a Shimadzu system equipped with a column Chromolith® Performance RP18e (Phenomenex, Aschaffenburg, Germany), gradient 0–100% acetonitrile in water within 15 min, flow rate 1.4 mL/min, tR = 8.53 min, and met the in-house specifications for ^68Ga-labeled compounds (> 95%).
(§4) Application of ^68Ga-Triveoctin was done according to §13/2b of the German Drug Act (Arzneimittelgesetz). A human subject received a single intravenous injection of ^68Ga-Triveoctin (173 MBq, approx. 25 µg; for radiolabeling and QC, see Additional file 1). […] 25 min p.i., the patient underwent a list-mode PET/CT imaging protocol on a Biograph Vision 600 (Siemens Healthineers, Knoxville, USA). A standard low-dose CT was acquired from the whole body (X-ray tube current 10 mA, tube voltage 100 kV, spiral pitch factor 1.5, 3.0 mm slice thickness) and used for absolute scatter correction of the subsequent PET scan. The emission PET scan was acquired over 19 min using continuous bed motion with a speed of 2.2 mm s^–1 for the legs and 1.4 mm s^–1 for the remaining body. The PET scan was repeated 45 min p.i. without another CT scan. Another PET/CT imaging sequence was acquired 90 min p.i. as the subject had to leave the scanner for voiding. All scans were obtained during normal breathing. PET images were reconstructed using the TRueX algorithm with 4 iterations, 5 subsets, time-of-flight (TOF) application and without filtering. […] The dosimetry values were calculated using OLINDA V1.1 [24] on the basis of the human PET data.

[3] = set-up: species or system human; settings: in vivo
Method: as §4
Assuming that an activity of 100 MBq ^68Ga-Triveoctin is sufficient for a PET scan at 30–60 min p.i., up to 6 investigations could be performed without exceeding the 20 mSv limit.

[4] = non-radioactive 69/71Ga(III) complexes where applicable, read-out: αvβ8-Integrin affinity IC50 (95% confidence interval)
[5] = female, CB17 SCID, 43 pmol, 1 h

αvβ8-integrin, sequence (P06756 31-992 limits assumed): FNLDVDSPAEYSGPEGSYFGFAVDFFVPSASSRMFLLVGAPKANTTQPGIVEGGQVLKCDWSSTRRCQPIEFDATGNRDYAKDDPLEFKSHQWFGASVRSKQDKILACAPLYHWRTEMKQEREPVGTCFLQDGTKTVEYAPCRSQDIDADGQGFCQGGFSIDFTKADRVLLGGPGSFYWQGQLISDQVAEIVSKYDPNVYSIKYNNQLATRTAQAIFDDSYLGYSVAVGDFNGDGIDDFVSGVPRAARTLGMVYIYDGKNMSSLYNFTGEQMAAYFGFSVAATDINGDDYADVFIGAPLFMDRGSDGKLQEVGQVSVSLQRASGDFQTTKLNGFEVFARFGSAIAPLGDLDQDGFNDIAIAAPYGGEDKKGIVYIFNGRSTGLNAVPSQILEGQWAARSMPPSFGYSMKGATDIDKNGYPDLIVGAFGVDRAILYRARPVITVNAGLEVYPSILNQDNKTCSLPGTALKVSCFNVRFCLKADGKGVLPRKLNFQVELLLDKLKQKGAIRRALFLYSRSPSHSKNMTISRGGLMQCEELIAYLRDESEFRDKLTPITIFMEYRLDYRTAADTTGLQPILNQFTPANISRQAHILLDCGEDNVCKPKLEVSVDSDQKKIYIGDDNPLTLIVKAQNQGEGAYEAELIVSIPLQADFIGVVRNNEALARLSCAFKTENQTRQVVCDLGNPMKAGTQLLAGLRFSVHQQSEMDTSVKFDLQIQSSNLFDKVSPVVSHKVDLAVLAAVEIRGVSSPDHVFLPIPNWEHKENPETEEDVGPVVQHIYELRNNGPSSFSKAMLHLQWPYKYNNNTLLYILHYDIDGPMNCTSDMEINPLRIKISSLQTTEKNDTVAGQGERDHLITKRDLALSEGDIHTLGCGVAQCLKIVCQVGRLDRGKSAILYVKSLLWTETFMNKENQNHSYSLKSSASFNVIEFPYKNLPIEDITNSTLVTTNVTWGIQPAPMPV
αvβ8-integrin, sequence (P26012 43-684 limits assumed): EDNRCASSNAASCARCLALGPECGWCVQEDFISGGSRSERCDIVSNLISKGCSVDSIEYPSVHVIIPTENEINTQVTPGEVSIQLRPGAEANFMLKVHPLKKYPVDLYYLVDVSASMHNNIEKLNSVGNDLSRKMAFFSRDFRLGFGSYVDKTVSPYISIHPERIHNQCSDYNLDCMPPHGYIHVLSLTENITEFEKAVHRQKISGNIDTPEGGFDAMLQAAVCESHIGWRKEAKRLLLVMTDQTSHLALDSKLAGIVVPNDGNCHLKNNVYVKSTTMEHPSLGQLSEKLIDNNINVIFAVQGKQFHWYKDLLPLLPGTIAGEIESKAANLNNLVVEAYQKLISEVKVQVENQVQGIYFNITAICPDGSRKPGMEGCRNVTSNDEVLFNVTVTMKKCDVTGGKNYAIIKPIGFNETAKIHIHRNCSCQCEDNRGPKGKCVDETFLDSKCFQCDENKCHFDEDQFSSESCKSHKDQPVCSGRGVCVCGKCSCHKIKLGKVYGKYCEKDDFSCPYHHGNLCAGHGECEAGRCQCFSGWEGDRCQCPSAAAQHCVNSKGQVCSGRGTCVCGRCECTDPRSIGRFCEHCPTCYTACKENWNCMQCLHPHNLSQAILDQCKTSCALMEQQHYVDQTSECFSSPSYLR

C#CCCC(=O)NCCCC[C@H]1C(=O)NCC(=O)N[C@@H](CC(C)C)C(=O)N[C@@H](CCCNC(=N)N)C(=O)NCC(=O)N[C@@H](CC(=O)O)C(=O)N[C@@H](CC(C)C)C(=O)N2CCC[C@@H]2C(=O)N1C [AvB8-pentynoic amide, cyclo(GLRGDLp(NMe)K(pent-4-ynoic amide))] (cyclo(GLRGDL[dP][NMeK](Pent4ynoyl)))
IC50 (αvβ8-integrin; [4]): 17 nM

CC(C)C[C@@H]1NC(=O)CNC(=O)[C@H](CCCCNC(=O)CCc2cn(CCCNC(=O)CCP(=O)(O)CN3CCN(CP(=O)(O)CCC(=O)O)CCN(CP(=O)(O)CCC(=O)O)CC3)nn2)N(C)C(=O)[C@H]2CCCN2C(=O)[C@H](CC(C)C)NC(=O)[C@H](CC(=O)O)NC(=O)CNC(=O)[C@H](CCCNC(=N)N)NC1=O [^68Ga-TRAP-AvB8, metal not drawn] (cyclo(GLRGDL[dP][NMeK](X2)))
IC50 (αvβ8-integrin): 38 nM | kidney uptake ([1]; 60 min p.i., average): 3.6 %IA/g | tumor uptake upon blockade ([1]; blockade n = 3): 0.25 %IA/g | tumor uptake ([1]; control n = 11): 1.0 %IA/g

CC(C)C[C@@H]1NC(=O)CNC(=O)[C@H](CCCCNC(=O)CCc2cn(CCCNC(=O)CCP(=O)(O)CN3CCN(CP(=O)(O)CCC(=O)NCCCn4cc(CCC(=O)NCCCC[C@H]5C(=O)NCC(=O)N[C@@H](CC(C)C)C(=O)N[C@@H](CCCNC(=N)N)C(=O)NCC(=O)N[C@@H](CC(=O)O)C(=O)N[C@@H](CC(C)C)C(=O)N6CCC[C@@H]6C(=O)N5C)nn4)CCN(CP(=O)(O)CCC(=O)NCCCn4cc(CCC(=O)NCCCC[C@H]5C(=O)NCC(=O)N[C@@H](CC(C)C)C(=O)N[C@@H](CCCNC(=N)N)C(=O)NCC(=O)N[C@@H](CC(=O)O)C(=O)N[C@@H](CC(C)C)C(=O)N6CCC[C@@H]6C(=O)N5C)nn4)CC3)nn2)N(C)C(=O)[C@H]2CCCN2C(=O)[C@H](CC(C)C)NC(=O)[C@H](CC(=O)O)NC(=O)CNC(=O)[C@H](CCCNC(=N)N)NC1=O [^68Ga-Triveoctin, metal not drawn] (I: cyclo(RGDL[dP][NMeK]GL) / II: cyclo(RGDL[dP][NMeK]GL) / III: cyclo(RGDL[dP][NMeK]GL); linker I:6-II:6-III:6 via X1)
IC50 (αvβ8-integrin; [4]): 5.7 nM | tissue uptake at 1 h (in vivo; Adrenals uptake): 0.39 ± 0.23 %ID/g | tissue uptake at 1 h (in vivo; Blood uptake): 0.28 ± 0.06 %ID/g | tissue uptake at 1 h (in vivo; Eye uptake): 1.95 ± 0.44 %ID/g | tissue uptake at 1 h (in vivo; Heart (myocard) uptake): 0.16 ± 0.04 %ID/g | tissue uptake at 1 h (in vivo; Kidneys uptake): 35.3 ± 6.3 %ID/g | tissue uptake at 1 h (in vivo; Large intestine (empty) uptake): 0.17 ± 0.03 %ID/g | tissue uptake at 1 h (in vivo; Liver uptake): 0.28 ± 0.06 %ID/g | tissue uptake at 1 h (in vivo; Lung uptake): 0.68 ± 0.19 %ID/g | tissue uptake at 1 h (in vivo; Muscle uptake): 0.07 ± 0.01 %ID/g | tissue uptake at 1 h (in vivo; Pancreas uptake): 0.12 ± 0.02 %ID/g | tissue uptake at 1 h (in vivo; Small intestine (empty) uptake): 0.18 ± 0.09 %ID/g | tissue uptake at 1 h (in vivo; Spleen uptake): 0.23 ± 0.03 %ID/g | tissue uptake at 1 h (in vivo; Stomach (empty) uptake): 0.22 ± 0.07 %ID/g | tissue uptake at 1 h (in vivo; Tumor MeWo uptake): 1.86 ± 0.31 %ID/g | tissue to tissue ratio at 1 h (in vivo; total radioactivity, kidney-to-blood ratio): 126 | tissue to tissue ratio at 1 h (in vivo; total radioactivity, kidney-to-muscle ratio): 505 | tissue to tissue ratio at 1 h (in vivo; tumor/blood ratio): 6.7 ± 0.7 | tissue to tissue ratio at 1 h (in vivo; tumor/heart (myocard) ratio): 11.7 ± 1.7 | tissue to tissue ratio at 1 h (in vivo; tumor/kidneys ratio): 0.1 | tissue to tissue ratio at 1 h (in vivo; tumor/liver ratio): 6.8 ± 1.4 | tissue to tissue ratio at 1 h (in vivo; tumor/lung ratio): 2.8 ± 0.7 | tissue to tissue ratio at 1 h (in vivo; tumor/muscle ratio): 29 ± 6 | tissue to tissue ratio at 1 h (in vivo; tumor/pancreas ratio): 15.7 ± 3.5 | tissue to tissue ratio at 1 h (in vivo; tumor/spleen ratio): 7.9 ± 1.5 | tissue to tissue ratio at 1 h (in vivo; tumor/stomach (empty) ratio): 8.8 ± 2.2 | Kidneys uptake [2, 5]: 35 %IA/g | Tumor MeWo uptake [2, 5]: 1.9 %IA/g | tumor/adrenals ratio [2]: 5.7 ± 2.3 | tumor/blood ratio [2]: 6.7 | tumor/eye ratio [2]: 1.0 ± 0.2 | tumor/large intestine (empty) ratio [2]: 11.0 ± 1.6 | tumor/liver ratio [2]: 6.8 | tumor/muscle ratio [2]: 29 | tumor/small intestine (empty) ratio [2]: 11.6 ± 3.9 | half-life (clinical): 1.8 h | kidney-to-blood ratio (clinical): approx. 15 | kidney-to-muscle ratio (clinical): ~30 | SUV at 1.5 h (clinical; iv, 173 MBq, total radioactivity): 6.1 SUV | tissue to tissue ratio at 1.5 h (clinical; iv, 173 MBq, total radioactivity, kidney-to-blood ratio): 15 | tissue to tissue ratio at 1.5 h (clinical; iv, 173 MBq, total radioactivity, kidney-to-blood ratio, times lower in human than in mice): 8 | tissue to tissue ratio at 1.5 h (clinical; iv, 173 MBq, total radioactivity, kidney-to-muscle ratio): 30 | tissue to tissue ratio at 1.5 h (clinical; iv, 173 MBq, total radioactivity, kidney-to-muscle ratio, times lower in human than in mice): 16 | Dose estimate, Adrenals [3]: 2.69E−02 mGy/MBq | Dose estimate, Brain [3]: 5.23E−03 mGy/MBq | Dose estimate, Breasts [3]: 5.46E−03 mGy/MBq | Dose estimate, Gallbladder wall [3]: 1.00E−02 mGy/MBq | Dose estimate, Heart wall [3]: 1.52E−02 mGy/MBq | Dose estimate, Kidneys [3]: 2.60E−01 mGy/MBq | Dose estimate, LLI wall [3]: 2.08E−02 mGy/MBq | Dose estimate, Liver [3]: 2.43E−02 mGy/MBq | Dose estimate, Lungs [3]: 7.83E−03 mGy/MBq | Dose estimate, Muscle [3]: 7.23E−03 mGy/MBq | Dose estimate, Osteogenic cells [3]: 8.89E−03 mGy/MBq | Dose estimate, Ovaries [3]: 1.13E−02 mGy/MBq | Dose estimate, Pancreas [3]: 2.01E−02 mGy/MBq | Dose estimate, Red marrow [3]: 6.48E−03 mGy/MBq | Dose estimate, Skin [3]: 5.60E−03 mGy/MBq | Dose estimate, Small intestine [3]: 3.52E−02 mGy/MBq | Dose estimate, Spleen [3]: 4.42E−02 mGy/MBq | Dose estimate, Stomach wall [3]: 1.95E−02 mGy/MBq | Dose estimate, Testes [3]: 8.14E−03 mGy/MBq | Dose estimate, Thymus [3]: 6.17E−03 mGy/MBq | Dose estimate, Thyroid [3]: 5.72E−03 mGy/MBq | Dose estimate, Total body [3]: 9.41E−03 mGy/MBq | Dose estimate, ULI wall [3]: 1.57E−02 mGy/MBq | Dose estimate, Urinary bladder wall [3]: 3.42E−01 mGy/MBq | Dose estimate, Uterus [3]: 1.57E−02 mGy/MBq | effective dose (ICRP 60) [3]: 3.00E−02 mSv/MBq

— article PMC7603442, “Tracking a TGF-β activator in vivo: sensitive PET imaging of αvβ8-integrin with the Ga-68-labeled cyclic RGD octapeptide trimer Ga-68-Triveoctin” (EJNMMI Research, 2020)
